{"source": "patent US5807729A", "about": "“Metalloprotease having increased activity” (Novo Nordisk A/S, priority 1995, dated 1998)", "molecules": {"B1": {"name": "Thermolysin from Bacillus thermoproteolyticus (enzyme)", "chain": "ITGTSTVGVGRGVLGDQKNINTTYSTYYYLQDNTRGNGIFTYDAKYRTTLPGSLWADADNQFFASYDAPAVDAHYYAGVTYDYYKNVHNRLSYDGNNAAIRSSVHYSQGYNNAFWNGSQMVYGDGDGQTFIPLSGGIDVVAHELTHAVTDYTAGLIYQNESGAINEAISDIFGTLVEFYANKNPDWEIGEDVYTPGISGDSLRSMSDPAKYGDPDHYSKRYTGTQDNGGVHINSGIINKAAYLISQGGTHYGVSVVGIGRDKLGKIFYRALTQYLTPTSNFSQLRAAAVQSATDLYGSTSQEVASVKQAFDAVGVK"}, "B2": {"name": "thermolysin: Thermolysin from Bacillus thermoproteolyticus (B.t.), purchased from Boehringer Mannheim (protein)", "chain": "B1 chain"}, "B3": {"name": "B.s. Thermolysin: thermolysin / neutral metalloprotease from Bacillus stearothermophilus (B.s.) (protein, UniProt P43133 236-551, looked up)", "Thermolysin": "B1 chain"}, "B4": {"name": "Pro-trypsin-like F. oxysporum protease: recombinant proenzyme form of the trypsin-like F. oxysporum protease (protein)", "chain": "APQEIPNIVGGTSASAGDFPFIVSISRNGGPWCGGSLLNANTVLTAAHCVSGYAQSGFQIRAGSLSRTSGGITSSLSSVRVHPSYSGNNNDLAILKLSTSIPSGGNIGYARLAASGSDPVAGSSATVAGWGATSEGGSSTPVNLLKVTVPIVSRATCRAQYGTSAITNQMFCAGVSSGGKDSCQGDSGGPIVDSSNTLIGAVSWGNGCARPNYSGVYASVGALRSFIDTYA"}}, "key": {"FTC-labeled casein [1]": {"biological_target": "FTC-labeled casein"}, "[2]": {"biological_target": "pro-trypsin-like Fusarium oxysporum protease (Fusarium oxysporum) (UniProt P35049)"}, "succinylated casein [3]": {"biological_target": "succinylated casein"}, "[4]": {"system": "Fusarium oxysporum metalloprotease", "test": "Inhibition of Fusarium metalloprotease with 1,10-phenanthroline / EDTA and reactivation with Zn2+", "assay_type": "biochemical", "method": "(§1) Metalloprotease activity is measured as released trypsin activity from pro-trypsin-like Fusarium oxysporum protease deposited at the Deutsche Sammlung von Mikroorganismen, Gottingen, Germany under the number DSM 2672, after a 30-60 min pre-incubation at 25° C. in 0.1M Tris, 2 mM CaCl2, pH 7 (at lower pH, 100 mM borate, 10 mM DMG, 2 mM CaCl2 is used).\n(§2) Metalloproteases contain a catalytic zinc metal center which participates in the hydrolysis of the peptide backbone. The active zinc center differentiates these proteases from calpains whose activities are dependent upon the presence of calcium. Confirmation of a protease as a metallo-protease is loss of proteolytic activity accomplished by removal of the zinc center with 1,10-phenanthroline (1 mM) followed by titration with Zn^2+ (0.1-100 μM) to restore full activity.\n(§3) However, when combined the metalloprotease cleaves recombinant pro-trypsin-like Fusarium oxysporum protease disclosed, supra to yield the active tryptic protease. Metalloprotease activity is halted upon the addition of 1 mM 1,10-phenanthroline (Table 1)."}, "succinylated casein [5]": {"biological_target": "succinylated casein", "remark": "listed apart in the source"}, "[6]": {"system": "Bacillus stearothermophilus thermolysin", "test": "Inhibitor analysis of B.s. thermolysin", "assay_type": "biochemical", "settings": "for type of inhibition, B.s. Thermolysin: kinetic analysis; for Ki: read-out: Inhibition Constant (Ki), B.s. Thermolysin", "method": "(§4) Other metalloprotease inhibitors are utilized to further differentiate the p45 metalloprotease from the Bacillus thermolysins. Inhibition constants for 1,10-phenanthroline, phosphoramidon, and CdCl2 are determined to be 130 uM, 1 uM, and 67 uM against the p45 Metalloprotease (Table 3). Inhibition constants for 1,10-phenanthroline, phosphoramidon, and CdCl2 are 85 uM, 26 uM, and 2 uM against the Bacillus stearothermophilus thermolysin. […] It is of interest to note that phophoramidon is an effective inhibitor of many bacterial metallo-endopeptidases but few of mammalian origin. Also, it is interesting that CdCl2 is found to be such an effective inhibitor of metalloproteases. No evidence of CdCl2 inhibition of metalloproteases has been found in the literature."}, "p45 Metalloprotease": {"biological_target": "p45 Metalloprotease (Fusarium oxysporum, UniProt M1UZ70)", "test": "Inhibitor analysis of the p45 metalloprotease", "assay_type": "biochemical", "parameters": "precursor 632 aa (18 signal, 226 pro); native or A. oryzae-expressed with same N-terminus", "settings": "for type of inhibition, p45 Maturase: kinetic analysis", "method": "as §4"}, "succinylated casein [7]": {"system": "succinylated casein", "test": "Casein hydrolysis, succinylated casein assay (QuantiCleave, BCA, 600 nm)", "assay_type": "biochemical", "settings": "for maximum absorbance, casein hydrolysis: pH 6.5, room temperature, 40 minutes, FIG. 8", "method": "400 ul of casein solution (Pierce) is added to small test tubes along with 100 ul of protease. The tubes are vortexed and incubated at room temperature for 40 minutes. The incubation (and assay) buffer is 0.1 M borate, 2 mM CaCl2, and 10 mM dimethylglutarate, pH 6.5. At the end of the incubation, 60 microliters of trichloroacetic acid (100% w/v) is added, and the tubes are vortexed and centrifuged for 1 minute at 5000×g. 20 microliters of the resulting supernatant is placed into a microtiter plate well with 200 microliters of the BCA working reagent (Pierce). The plates are then vortexed and incubated another 30 minutes, then read at 600 nm using a Biomek 1000 microtiter plate reader.\n400 microliters of casein solution (Pierce) are added to small test tubes along with 100 microliters of protease in buffer \"A\" (0.1M borate, 2 mM CaCl2 and 10 mM dimethylglutaric acid). At the end of the incubation, 60 microliters of trichloroacetic acid (100% w/v) is added, and the tubes are vortexed and centrifuged for 1 minute at 5000×g. 20 microliters of the resulting supernatant is placed into a microtiter plate well with 200 microliters of the BCA working reagent (Pierce). The plates are then vortexed and incubated another 30 minutes, then read at 600 nm using a Biomek 1000 microtiter plate reader."}, "FTC-labeled casein [8]": {"system": "FTC-labeled casein", "test": "Thermal stability profile, FTC-casein hydrolysis", "assay_type": "biochemical", "settings": "15 minutes at various temperatures, Universal buffer pH 7; FIG. 9", "method": "Purified p45 metalloprotease or B.t. thermolysin (Boehringer Mannheim) (50 microliters, 0.1 mg/ml) are incubated at various temperatures for 15-minutes in Universal buffer, pH 7. Ten microliters of sample are then added to 30 microliters of Universal pH buffer (pH 7) and 20 microliters of FTC-labeled casein and are incubated at 37° C. for 1 hour. 150 microliters of 5% TCA is added to acidify and precipitate casein (1 hour at room temperature). […] Samples are then analyzed on the fluorimeter (slit width=2.5 nm; excitation freq.=490 nm; emission freq.=525 nm; integration time=2 sec)."}, "[9]": {"system": "Ac-Pro-Leu-Gly[2-mercapto-4-methyl-pentanoyl]-Leu-Gly-OEt", "test": "Hydrolysis of the thermolytic merc-peptide substrate (Ellman's reagent, 405 nm)", "assay_type": "biochemical", "method": "The thermolytic substrate Ac-Pro-Leu-Gly[2-mercapto-4-methyl-pentanoyl]-Leu-Gly-OEt (i.e. the merc-peptide) is also used to further characterize the p45 metalloprotease and B.t. thermolysin.\nReaction mixtures contain 100 microliters of Ac-Pro-Leu-Gly[2-mercapto-4-methyl-pentanoyl]-Leu-Gly-OEt (1 mM, and 1 mM Ellman's reagent) and 100 microliters of either B.t. thermolysin or purified p45 metalloprotease (0-3 ug/ml) in sample buffer."}, "[10]": {"system": "FAGLA: N-(3-[2-Furyl]Acryloyl)-Gly-Leu amide", "test": "FAGLA hydrolysis (345 nm)", "assay_type": "biochemical", "method": "The thermolytic substrate FAGLA: N-(3-[2-Furyl]Acryloyl)-Gly-Leu amide is used to further characterize the p45 metalloprotease and B.t. thermolysin. Reaction mixtures contain 100 microliters of N-(3-[2-Furyl]Acryloyl)-Gly-Leu amide (FAGLA) (2 mM) and 100 microliters of various concentrations of either thermolysin (Boehringer Mannheim) or purified p45 metalloprotease. Thermolytic activity is determined as a decrease in absorbance at 345 nm on the recording spectrometer for one minute(Shimadzu, UV160U). The linear range of the assay for thermolysin is 10-500 ug/ml thermolysin in the assay mix."}, "FTC-labeled casein [11]": {"system": "FTC-labeled casein", "test": "Protease analysis using FTC-labeled casein", "assay_type": "biochemical", "method": "Samples are incubated at room temperature for 30 minutes."}, "[12]": {"system": "succinyl-Ala-Ala-Ala-p-nitroanilide", "test": "Hydrolysis of succinyl-Ala-Ala-Ala-p-nitroanilide", "assay_type": "biochemical", "source_text": "Both p45 metalloprotease and a neutral zinc endopeptidase secreted by Flavobacterium meningosepticum poorly hydrolyze the substrate N-[3-(2--furyl)acryloyl]-Leu-Gly-NH2. However, the neutral zinc endopeptidase secreted by Flavobacterium meningosepticum will hydrolyze the vertebrate elastase substrate succinyl-Ala-Ala-Ala-p-nitroanilide, a substrate that thermolysin cannot hydrolyze (Table 2). Therefore, succinyl-Ala-Ala-Ala-p-nitroanilide hydrolysis by the p45 metalloprotease is investigated. […] This effect further differentiates the p45 metalloprotease from other existing metalloproteases."}, "[13]": {"system": "pro-trypsin-like F. oxysporum protease", "test": "Processing of pro-trypsin-like F. oxysporum protease to active trypsin-like protease", "procedure": "Activatable pro-trypsin-like F. oxysporum protease is determined in microtiter wells as released trypsin-like F. oxysporum protease (tryptic) activity from pro-trypsin-like F. oxysporum protease after a 40 minute pre-incubation at room temperature with purified Fusarium oxysporum metalloprotease (approximately 6 ug).\nProcessed pro-trypsin-like F. oxysporum protease(i.e. mature trypsin-like F. oxysporum protease) activity is determined directly from microtiter plates containing the pre-incubated metalloprotease/pro-trypsin-like F. oxysporum protease cocktail (total volume=100 microliters), and 100 microliters of substrate (87 mg/ml.L-BAPNA stock in DMSO diluted 50-fold in sample buffer). Again, active trypsin-like F. oxysporum protease is determined as an increase in absorbance at 405 nm immediately after L-BAPNA addition.\nPurified pro-trypsin-like F. oxysporum protease is added to fresh A. oryzae fermentation broths containing the recombinant p45 metalloprotease (approximately 90 mg/L) and incubated for either 1, 2, or 3 hours at room temperature. Levels of pro-trypsin-like F. oxysporum protease in the incubation mixtures range from 100 ug/ml to 13 mg/ml.\nPurified pro-trypsin-like F. oxysporum protease (100 ug/ml) is added to various amounts of either purified recombinant p45 metalloprotease or purified B.s. metalloprotease."}, "[14]": {"system": "pro-trypsin-like Fusarium oxysporum protease", "test": "Proteolytic enzyme assay: tryptic activity released from pro-trypsin-like protease, L-BAPNA, 405 nm", "assay_type": "biochemical", "method": "as §1, §2, §3"}}, "note": "Like-named read-outs stand apart in the source and are kept apart here."}
{"molecule": "neutral metalloprotease from Bacillus stearothermophilus (enzyme)", "values": [{"measurement": "Specific Activity (fluorescence released from FTC-casein)", "setting": "FTC-labeled casein [1]", "result": 220, "unit": "FU/min·mg"}, {"measurement": "Specific Activity (released trypsin activity, L-BAPNA) (g trypsin/min*mg)", "setting": "[2]", "result": 0.018}, {"measurement": "maximum absorbance, succinylated casein hydrolysis", "setting": "succinylated casein [3]", "result": 0.47, "unit": "O.D."}]}
{"molecule": "[Zn+2]", "note": "[Zn^2+]", "values": [{"measurement": "reactivation of the 1,10-phenanthroline-inhibited Fusarium metalloprotease", "setting": "[4]; addition of 1 mM Zn2+", "result": "full reactivation"}]}
{"molecule": "O=C(O)CN(CCN(CC(=O)O)CC(=O)O)CC(=O)O", "note": "[EDTA]", "values": [{"measurement": "metalloprotease activity upon addition of the inhibitor", "setting": "[4]; inhibitor 1 mM", "result": "Analogous results"}]}
{"molecule": "p45 metalloprotease from Fusarium oxysporum (enzyme)", "values": [{"measurement": "Specific Activity (fluorescence released from FTC-casein)", "setting": "FTC-labeled casein [1]", "result": 170, "unit": "FU/min·mg"}, {"measurement": "Specific Activity (released trypsin activity, L-BAPNA) (g trypsin/min*mg)", "setting": "[2]", "result": 1.2}, {"measurement": "maximum absorbance, succinylated casein hydrolysis", "setting": "succinylated casein [3]", "result": 0.3, "unit": "O.D"}]}
{"molecule": "dispase (enzyme)", "values": [{"measurement": "maximum absorbance, succinylated casein hydrolysis", "setting": "succinylated casein [5]", "result": 0.47, "unit": "absorbance"}]}
{"molecule": "CC(C)C[C@H](NP(=O)(O)O[C@@H]1O[C@@H](C)[C@H](O)[C@@H](O)[C@H]1O)C(=O)N[C@@H](Cc1c[nH]c2ccccc12)C(=O)O", "note": "[phosphoramidon]", "values": [{"measurement": "type of inhibition, B.s. Thermolysin", "setting": "[6]", "result": "Noncompetitive"}, {"measurement": "Ki", "setting": "[6]", "result": 26, "unit": "µM"}, {"measurement": "Ki", "setting": "p45 Metalloprotease", "result": 1, "unit": "µM"}, {"measurement": "type of inhibition, p45 Maturase", "setting": "p45 Metalloprotease", "result": "Noncompetitive"}]}
{"molecule": "[Cl][Cd][Cl]", "note": "[CdCl2]", "values": [{"measurement": "type of inhibition, B.s. Thermolysin", "setting": "[6]", "result": "Competitive"}, {"measurement": "Ki", "setting": "[6]", "result": 2, "unit": "µM"}, {"measurement": "type of inhibition, p45 Maturase", "setting": "p45 Metalloprotease", "result": "Noncompetitive"}, {"measurement": "Ki", "setting": "p45 Metalloprotease; read-out: Inhibition Constant (Ki), p45 Maturase", "result": 67, "unit": "µM"}]}
{"molecule": "B1", "values": [{"measurement": "maximum absorbance, succinylated casein hydrolysis", "setting": "succinylated casein [5]", "result": 0.47, "unit": "absorbance"}]}
{"molecule": "B2", "values": [{"measurement": "maximum absorbance, casein hydrolysis", "setting": "succinylated casein [7]", "result": "~0.47", "unit": "O.D. units"}, {"measurement": "optimum temperature for hydrolysis of FTC-casein", "setting": "FTC-labeled casein [8]", "result": 80, "unit": "°C"}]}
{"molecule": "B3", "values": [{"measurement": "Specific Activity, substrate Succinylated Casein (maximal level)", "setting": "succinylated casein [7]", "result": 0.47, "unit": "O.D."}, {"measurement": "maximum absorbance, casein hydrolysis", "setting": "succinylated casein [7]", "result": "~0.47", "unit": "O.D. units"}, {"measurement": "Specific Activity, substrate merc-peptide", "setting": "[9]", "result": 2.9, "unit": "AU/min*mg"}, {"measurement": "Specific Activity, substrate FAGLA", "setting": "[10]", "result": "227 -AU/sec*mg"}, {"measurement": "Specific Activity, substrate FTC-Labelled Casein", "setting": "FTC-labeled casein [11]", "result": 220, "unit": "FU/min*mg"}, {"measurement": "Specific Activity, substrate Ala-Ala-Ala-pNA", "setting": "[12]", "result": "< 2", "unit": "pmol pNA/min*mg"}, {"measurement": "hydrolysis of succinyl-Ala-Ala-Ala-p-nitroanilide", "setting": "[12]; substrate 4.4 mM in 0.1M Tris, pH 8", "result": "neither, the p45 metalloprotease nor the B.s. thermolysin would hydrolyze"}, {"measurement": "Specific Activity, substrate pro-trypsin", "setting": "[13]", "result": ".018 g trypsin/min*mg"}]}
{"molecule": "B4", "values": [{"measurement": "tryptic activity of the sample alone", "setting": "[14]; sample alone", "result": "do not contain any tryptic activity"}, {"measurement": "Tryptic Activity", "setting": "[14]; without 1,10-phenanthroline, without Zn2+", "result": "1.26 Δ Abs/min × 10^-4"}]}
